Source: paper PMC5392571, “A model for the conformational activation of the structurally quiescent metalloprotease ADAMTS13 by von willebrand factor” (The Journal of Biological Chemistry, 2017)

B1: CUB1 domain fragment (ADAMTS13 residues 1192–1298) (domain or fragment, human, UniProt Q76LX8 1192-1298, looked up)
chain: CGRQHLEPTGTIDMRGPGQADCAVAIGRPLGEVVTLRVLESSLNCSAGDMLLLWGRLTWRKMCRKLLDMTFSSKTNTLVVRQRCGRPGGGVLLRYGSQLAPETFYRE
notes: ADAMTS13, human, residues 1192-1298 (CUB1 domain); Generated by inverse PCR from the full-length ADAMTS13 construct (C-terminal Myc/His6); detected by anti-His6 in the co-IP; also called isolated CUB1 fragment; source: HEK293S cells, purified
B2: CUB1-2 domain fragment (ADAMTS13 residues 1192–1427) (domain or fragment, human, UniProt Q76LX8 1192-1427, looked up)
chain: CGRQHLEPTGTIDMRGPGQADCAVAIGRPLGEVVTLRVLESSLNCSAGDMLLLWGRLTWRKMCRKLLDMTFSSKTNTLVVRQRCGRPGGGVLLRYGSQLAPETFYRECDMQLFGPWGEIVSPSLSPATSNAGGCRLFINVAPHARIAIHALATNMGAGTEGANASYILIRDTHSLRTTAFHGQQVLYWESESSQAEMEFSEGFLKAQASLRGQYWTLQSWVPEMQDPQSWKGKEGT
notes: ADAMTS13, human, residues 1192-1427 (CUB1 and CUB2 domains); Generated by inverse PCR from the full-length ADAMTS13 construct (C-terminal Myc/His6); source: HEK293S cells, purified
B3: CUB2 domain fragment (ADAMTS13 residues 1299–1427) (domain or fragment, human, UniProt Q76LX8 1299-1427, looked up)
chain: CDMQLFGPWGEIVSPSLSPATSNAGGCRLFINVAPHARIAIHALATNMGAGTEGANASYILIRDTHSLRTTAFHGQQVLYWESESSQAEMEFSEGFLKAQASLRGQYWTLQSWVPEMQDPQSWKGKEGT
notes: ADAMTS13, human, residues 1299-1427 (CUB2 domain); Generated by inverse PCR from the full-length ADAMTS13 construct (C-terminal Myc/His6); detected by anti-His6 in the co-IP; also called isolated CUB2 fragment; source: HEK293S cells, purified

Legend:
[1] = biological target: T1, dimeric VWF D4-CK domain fragment (VWF residues 1874–2813) (UniProt P04275 1874-2813); experiment: SPR; BIAcore T100, CM5 chip; ADAMTS13, its truncation variants or CUB fragments immobilised, VWF D4-CK as analyte; 10 mM HEPES, 150 mM NaCl, pH 7.4, 0.0034 mM EDTA, 0.005% Tween 20; global analysis; conditions: both partners purified
T1 construct: von Willebrand factor, residues 1874-2813 (D4 to CK domains); source: HEK293S, transiently expressed, purified by FPLC

[2] = biological target: T2, WT MDTCS (ADAMTS13 residues 1–685) (human, UniProt Q76LX8 30-685); experiment: SPR; BIAcore T100, CM5 chip; 10 mM HEPES, 150 mM NaCl, pH 7.4, 0.0034 mM EDTA, 0.005% Tween 20; the text says MDTCS variants were immobilised, the legend of Fig. 1 says the CUB fragments were; global analysis; conditions: both partners purified
T2 construct: signal peptide in the construct; ADAMTS13, human, residues 1-685 (metalloprotease, disintegrin-like, TSP1, cysteine-rich and spacer domains); In pCEP4; also called truncated ADAMTS13 variant MDTCS; source: HEK293S cells, purified; not shown: His6, C-terminal, kept
T2 sequence (looked up): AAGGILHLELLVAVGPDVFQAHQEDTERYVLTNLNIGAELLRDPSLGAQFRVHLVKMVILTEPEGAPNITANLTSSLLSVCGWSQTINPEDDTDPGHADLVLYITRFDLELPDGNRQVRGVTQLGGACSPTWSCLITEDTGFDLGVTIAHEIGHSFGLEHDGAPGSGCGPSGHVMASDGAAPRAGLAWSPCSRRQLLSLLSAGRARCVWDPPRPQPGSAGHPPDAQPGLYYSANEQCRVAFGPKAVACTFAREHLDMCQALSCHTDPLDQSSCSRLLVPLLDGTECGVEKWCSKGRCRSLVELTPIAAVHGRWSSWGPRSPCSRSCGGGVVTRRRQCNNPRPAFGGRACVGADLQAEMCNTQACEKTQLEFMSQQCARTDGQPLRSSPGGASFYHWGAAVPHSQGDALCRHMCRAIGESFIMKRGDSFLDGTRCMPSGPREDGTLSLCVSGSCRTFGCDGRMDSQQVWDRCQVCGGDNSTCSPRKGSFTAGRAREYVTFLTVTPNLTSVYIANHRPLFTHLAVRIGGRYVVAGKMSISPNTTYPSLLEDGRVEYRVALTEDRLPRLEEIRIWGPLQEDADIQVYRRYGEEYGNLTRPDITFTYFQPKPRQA

Binder | Kd [1] [nM] | Kd [2] [nM]
B1 | 53.7 | 135
B2 | 51.8 | 55.6
B3 | 84.3 | 86.9
